Laboratory results from patent publication US20020164744A1, “Soluble, active recombinant human MAO-B” (priority 1999, published 2002).
Like-named read-outs stand apart in the source and are kept apart here.

T1: recombinant human MAO-B (Homo sapiens, UniProt P27338)
T1 construct: DNA coding for the full length and truncated C-terminal HIS tagged MAO-B proteins, as described above; made in house; host or cells: Saccharomyces cerevisiae INVSc1
T1 sequence (P27338 1-520): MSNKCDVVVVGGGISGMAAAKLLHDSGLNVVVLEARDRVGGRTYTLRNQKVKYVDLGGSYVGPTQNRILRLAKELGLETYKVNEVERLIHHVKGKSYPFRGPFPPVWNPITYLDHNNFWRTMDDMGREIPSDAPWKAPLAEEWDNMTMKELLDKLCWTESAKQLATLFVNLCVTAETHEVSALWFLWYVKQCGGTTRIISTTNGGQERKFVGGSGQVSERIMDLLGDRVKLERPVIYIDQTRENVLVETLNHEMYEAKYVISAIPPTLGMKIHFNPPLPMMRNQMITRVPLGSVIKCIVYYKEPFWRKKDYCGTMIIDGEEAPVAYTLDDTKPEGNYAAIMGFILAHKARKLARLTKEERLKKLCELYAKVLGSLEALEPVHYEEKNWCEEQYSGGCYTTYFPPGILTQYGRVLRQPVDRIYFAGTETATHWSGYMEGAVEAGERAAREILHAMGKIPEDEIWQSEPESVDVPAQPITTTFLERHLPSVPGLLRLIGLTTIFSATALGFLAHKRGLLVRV


Assays:
recombinant human MAO-B [1] = experiment: MAO-B activity assay (reaction velocity, specific activity, Km) with 1-methyl-4-(1-methyl-2-pyrryl)-1,2,3,6-tetrahydropyridine as substrate; assay type: biochemical; conditions: substrate 1-methyl-4-(1-methyl-2-pyrryl)-1,2,3,6-tetrahydropyridine; purified C-terminal deletion mutants
Protocol: (§1) The MAO-B containing solutions, including fractions isolated from chromatography columns, were assayed to measure reaction velocity. The assays were carried out in a final volume of 200 μl in 50 mM sodium phosphate, 10 mM NaCl, pH 7.5, with 0.2 mM substrate (1-methyl-4-(1-methyl-2-pyrryl)-1,2,3,6-tetrahydropyridine) as described in Flaherty, et al., J. Med. Chem., 39:4756-4761 (1996) hereby incorporated by reference. Reaction velocity was followed at an absorbence of 420 nm at 37° C. in a SpectraMax 250 96-well plate reader. Specific activity measurements were made using a Shimadzu UV-2101PC spectrophotometer equipped with a Shimadzu temperature controller (TCC-controller) set to 37° C. Protein concentrations were determined using the Bio-Rad Protein Assay kit (Bio-Rad Laboratories, Hercules, Calif.).
(§2) Analysis of samples containing purified wild-typeMAO-B was carried out using 1-methyl-4-(1-methyl-2-pyrryl)-1,2,3,6-tetrahydropyridine as the substrate. The effect of protein concentration on activity was measured. […] The plot of MAO-B concentration vs. activity was a straight line. Variation of the substrate at a constant enzyme concentration was used to determine the Km for the substrate. […] Again, the reaction progress at each concentration of substrate was followed as straight lines with coefficients of correlation greater than 0.99.
(§3) The activity of samples containing the purified mutant MAO-B described in Example 1 above was also analyzed using 1-methyl-4-(1-methyl-2-pyrryl)-1,2,3,6-tetrahydropyridine as the substrate. Activity was highest for wild-type MAO-B followed by the MAO-B mutant Met1-Leu498 which had approximately 10% of wild-type activity. The two remaining C-terminal deletion mutants, Met1-Val470 and Met1-Val418, had about the same activities, less than 0.1% of wild-type MAO-B activity. This confirms that deletion or truncation of the C-terminus of human MAO-B causes loss of enzymatic activity.

recombinant human MAO-B [2] = target: T1, recombinant human MAO-B; experiment: as above; assay type: biochemical
Protocol: as §1, §2, §3

[3] = substrate 1-methyl-4-(1-methyl-2-pyrryl)-1,2,3,6-tetrahydropyridine, 37° C., fraction after purification step
[4] = substrate 1-methyl-4-(1-methyl-2-pyrryl)-1,2,3,6-tetrahydropyridine, fraction after purification step, read-out: Km FOR SUBSTRATE

| Molecule | activity relative to wild-type MAO-B activity (recombinant human MAO-B [1]) | activity (rank among wild-type and mutants) (recombinant human MAO-B [2]; substrate 1-methyl-4-(1-methyl-2-pyrryl)-1,2,3,6-tetrahydropyridine) | Km (recombinant human MAO-B [2]; substrate 1-methyl-4-(1-methyl-2-pyrryl)-1,2,3,6-tetrahydropyridine varied at constant enzyme concentration, 37° C., read-out: Km for the substrate (Lineweaver Burke plot)) [µM] | SPECIFIC ACTIVITY (recombinant human MAO-B [2]; [3]) [nmol/min/mg] | Km (recombinant human MAO-B [2]; [4]) [µM] |
| --- | --- | --- | --- | --- | --- |
| Post-Superose 6 chromatography/concentrate: recombinant human MAO-B further resolved on Superose-6 size exclusion column and concentrated (protein, UniProt P27338 2-520, looked up) Amine oxidase …: SNKCDVVVVGGGISGMAAAKLLHDSGLNVVVLEARDRVGGRTYTLRNQKVKYVDLGGSYVGPTQNRILRLAKELGLETYKVNEVERLIHHVKGKSYPFRGPFPPVWNPITYLDHNNFWRTMDDMGREIPSDAPWKAPLAEEWDNMTMKELLDKLCWTESAKQLATLFVNLCVTAETHEVSALWFLWYVKQCGGTTRIISTTNGGQERKFVGGSGQVSERIMDLLGDRVKLERPVIYIDQTRENVLVETLNHEMYEAKYVISAIPPTLGMKIHFNPPLPMMRNQMITRVPLGSVIKCIVYYKEPFWRKKDYCGTMIIDGEEAPVAYTLDDTKPEGNYAAIMGFILAHKARKLARLTKEERLKKLCELYAKVLGSLEALEPVHYEEKNWCEEQYSGGCYTTYFPPGILTQYGRVLRQPVDRIYFAGTETATHWSGYMEGAVEAGERAAREILHAMGKIPEDEIWQSEPESVDVPAQPITTTFLERHLPSVPGLLRLIGLTTIFSATALGFLAHKRGLLVRV |  |  |  | 80.6 | 55.4 |
| IMAC eluted/concentrate: HIS-tagged recombinant human MAO-B from yeast extract, eluted from Ni-NTA IMAC column and concentrated (protein, UniProt P27338 2-520, looked up, His tag, HIS-tagged recombinant human MAO-B from yeast extract, eluted from Ni-NTA IMAC column and concentrated) Amine oxidase …: SNKCDVVVVGGGISGMAAAKLLHDSGLNVVVLEARDRVGGRTYTLRNQKVKYVDLGGSYVGPTQNRILRLAKELGLETYKVNEVERLIHHVKGKSYPFRGPFPPVWNPITYLDHNNFWRTMDDMGREIPSDAPWKAPLAEEWDNMTMKELLDKLCWTESAKQLATLFVNLCVTAETHEVSALWFLWYVKQCGGTTRIISTTNGGQERKFVGGSGQVSERIMDLLGDRVKLERPVIYIDQTRENVLVETLNHEMYEAKYVISAIPPTLGMKIHFNPPLPMMRNQMITRVPLGSVIKCIVYYKEPFWRKKDYCGTMIIDGEEAPVAYTLDDTKPEGNYAAIMGFILAHKARKLARLTKEERLKKLCELYAKVLGSLEALEPVHYEEKNWCEEQYSGGCYTTYFPPGILTQYGRVLRQPVDRIYFAGTETATHWSGYMEGAVEAGERAAREILHAMGKIPEDEIWQSEPESVDVPAQPITTTFLERHLPSVPGLLRLIGLTTIFSATALGFLAHKRGLLVRV |  |  |  | 8.7 | 71.9 |

Continued, in another order:

| activity relative to wild-type MAO-B activity (recombinant human MAO-B [1]) | activity (rank among wild-type and mutants) (recombinant human MAO-B [2]; substrate 1-methyl-4-(1-methyl-2-pyrryl)-1,2,3,6-tetrahydropyridine) | Molecule | Km (recombinant human MAO-B [2]; substrate 1-methyl-4-(1-methyl-2-pyrryl)-1,2,3,6-tetrahydropyridine varied at constant enzyme concentration, 37° C., read-out: Km for the substrate (Lineweaver Burke plot)) [µM] | SPECIFIC ACTIVITY (recombinant human MAO-B [2]; [3]) [nmol/min/mg] | Km (recombinant human MAO-B [2]; [4]) [µM] |
| --- | --- | --- | --- | --- | --- |
| approximately 10% |  | Met1-Leu498: C-terminal deletion mutant of human MAO-B-HIS6, residues Met1-Leu498 (protein, UniProt P27338 1-498, looked up, fragment, His6 tag) MSNKCDVVVVGGGISGMAAAKLLHDSGLNVVVLEARDRVGGRTYTLRNQKVKYVDLGGSYVGPTQNRILRLAKELGLETYKVNEVERLIHHVKGKSYPFRGPFPPVWNPITYLDHNNFWRTMDDMGREIPSDAPWKAPLAEEWDNMTMKELLDKLCWTESAKQLATLFVNLCVTAETHEVSALWFLWYVKQCGGTTRIISTTNGGQERKFVGGSGQVSERIMDLLGDRVKLERPVIYIDQTRENVLVETLNHEMYEAKYVISAIPPTLGMKIHFNPPLPMMRNQMITRVPLGSVIKCIVYYKEPFWRKKDYCGTMIIDGEEAPVAYTLDDTKPEGNYAAIMGFILAHKARKLARLTKEERLKKLCELYAKVLGSLEALEPVHYEEKNWCEEQYSGGCYTTYFPPGILTQYGRVLRQPVDRIYFAGTETATHWSGYMEGAVEAGERAAREILHAMGKIPEDEIWQSEPESVDVPAQPITTTFLERHLPSVPGLLRLIGL |  |  |  |
|  | highest | wild-type MAO-B: purified full-length recombinant human MAO-B with HIS6 tag expressed in S. cerevisiae (protein, UniProt P27338 1-520, looked up, full-length His6 tag, purified full-length recombinant human MAO-B with HIS6 tag expressed in S. cerevisiae) MSNKCDVVVVGGGISGMAAAKLLHDSGLNVVVLEARDRVGGRTYTLRNQKVKYVDLGGSYVGPTQNRILRLAKELGLETYKVNEVERLIHHVKGKSYPFRGPFPPVWNPITYLDHNNFWRTMDDMGREIPSDAPWKAPLAEEWDNMTMKELLDKLCWTESAKQLATLFVNLCVTAETHEVSALWFLWYVKQCGGTTRIISTTNGGQERKFVGGSGQVSERIMDLLGDRVKLERPVIYIDQTRENVLVETLNHEMYEAKYVISAIPPTLGMKIHFNPPLPMMRNQMITRVPLGSVIKCIVYYKEPFWRKKDYCGTMIIDGEEAPVAYTLDDTKPEGNYAAIMGFILAHKARKLARLTKEERLKKLCELYAKVLGSLEALEPVHYEEKNWCEEQYSGGCYTTYFPPGILTQYGRVLRQPVDRIYFAGTETATHWSGYMEGAVEAGERAAREILHAMGKIPEDEIWQSEPESVDVPAQPITTTFLERHLPSVPGLLRLIGLTTIFSATALGFLAHKRGLLVRV | 71.9 |  |  |
